Reference: IntAct's records for PubMed 26647308

B1: Forkhead box protein P1 (Homo sapiens), Q9H334 (parent)
chain: MMQESGTETKSNGSAIQNGSGGSNHLLECGGLREGRSNGETPAVDIGAADLAHAQQQQQQALQVARQLLLQQQQQQQVSGLKSPKRNDKQPALQVPVSVAMMTPQVITPQQMQQILQQQVLSPQQLQVLLQQQQALMLQQQQLQEFYKKQQEQLQLQLLQQQHAGKQPKEQQQVATQQLAFQQQLLQMQQLQQQHLLSLQRQGLLTIQPGQPALPLQPLAQGMIPTELQQLWKEVTSAHTAEETTGNNHSSLDLTTTCVSSSAPSKTSLIMNPHASTNGQLSVHTPKRESLSHEEHPHSHPLYGHGVCKWPGCEAVCEDFQSFLKHLNSEHALDDRSTAQCRVQMQVVQQLELQLAKDKERLQAMMTHLHVKSTEPKAAPQPLNLVSSVTLSKSASEASPQSLPHTPTTPTAPLTPVTQGPSVITTTSMHTVGPIRRRYSDKYNVPISSADIAQNQEFYKNAEVRPPFTYASLIRQAILESPEKQLTLNEIYNWFTRMFAYFRRNAATWKNAVRHNLSLHKCFVRVENVKGAVWTVDEVEFQKRRPQKISGNPSLIKNMQSSHAYCTPLNAALQASMAENSIPLYTTASMGNPTLGNLASAIREELNGAMEHTNSNESDSSPGRSPMQAVHPVHVKEEPLDPEEAEGPLSLVTTANHSPDFDHDRDYEDEPVNEDME

Variants of: B1
Settings: with foxp2_human FOXP2, O15409
foxp2_human FOXP2, O15409, sequence (O15409 whole entry): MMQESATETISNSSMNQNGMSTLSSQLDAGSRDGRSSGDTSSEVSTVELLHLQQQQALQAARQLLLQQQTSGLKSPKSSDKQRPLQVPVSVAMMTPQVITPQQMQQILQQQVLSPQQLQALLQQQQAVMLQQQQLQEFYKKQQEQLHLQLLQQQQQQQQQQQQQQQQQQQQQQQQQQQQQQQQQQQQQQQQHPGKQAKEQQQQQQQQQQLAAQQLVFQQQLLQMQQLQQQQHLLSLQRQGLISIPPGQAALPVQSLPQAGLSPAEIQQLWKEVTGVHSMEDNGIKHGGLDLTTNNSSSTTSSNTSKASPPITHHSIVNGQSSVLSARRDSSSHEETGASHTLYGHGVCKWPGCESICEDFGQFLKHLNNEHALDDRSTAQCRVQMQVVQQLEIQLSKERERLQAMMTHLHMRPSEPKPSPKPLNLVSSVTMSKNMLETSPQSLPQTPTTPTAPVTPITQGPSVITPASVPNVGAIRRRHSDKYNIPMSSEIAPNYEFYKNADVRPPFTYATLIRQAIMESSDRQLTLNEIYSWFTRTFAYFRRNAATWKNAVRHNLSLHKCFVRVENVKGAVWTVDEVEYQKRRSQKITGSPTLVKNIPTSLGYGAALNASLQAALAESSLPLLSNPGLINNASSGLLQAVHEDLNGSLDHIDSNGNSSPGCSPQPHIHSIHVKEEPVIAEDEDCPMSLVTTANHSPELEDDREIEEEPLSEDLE

| Variant | effect of a mutation on the interaction |
| --- | --- |
| I107T | disrupting interaction strength |
| P215A | decreasing interaction strength |
| W534R | decreasing interaction strength |

The next lines start with the values.

| effect of a mutation on the interaction | Variant |
| --- | --- |
| with no effect | R465G |
| with no effect | N597T |
| decreasing interaction strength | R514C |
| with no effect | N570S |

Variants of: B1
Settings: with foxp2_human FOXP2, O15409
Remark: another data set of the same source

| effect of a mutation on the interaction | Variant |
| --- | --- |
| decreasing interaction strength | R465G |
| disrupting interaction strength | W534R |
